Series [1] relates to HeLa Kyoto. Nature of the series: solubility in G1/S (NP-40 vs SDS abundance) (log2 ratio); higher = more soluble. The conditions noted are these: cell cycle stage: G1/S.
In series [2] the test system is HeLa Kyoto. Nature of the series: melting temperature (median over replicates), in situ; higher = more thermally stable.
The test system of series [3] is HeLa Kyoto. Nature of the series: solubility change mitosis vs G1/S (difference of NP-40 vs SDS log2 ratios) (log2 ratio difference); higher = more soluble in mitosis.
The subject of series [4] is HeLa Kyoto. Nature of the series: thermal stability score vs G1/S (z-score of summed log2 fold changes over temperatures); higher = more thermally stable than in G1/S.
Setting [5] is: cell cycle stage: early G1 (4.5 h after nocodazole release).
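Throughout, for melting temperature (median over replicates), in situ: HeLa Kyoto cells synchronized by double thymidine or nocodazole block, proteins quantified by TMT10plex mass spectrometry, three independent biological replicates.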
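Throughout, for solubility change mitosis vs G1/S (difference of NP-40 vs SDS log2 ratios): synchronized HeLa Kyoto cells (double thymidine block for G1/S, nocodazole release for mitosis), protein amounts in NP-40 versus SDS lysates quantified by mass spectrometry, three biological replicates.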
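Throughout, for solubility in G1/S (NP-40 vs SDS abundance): HeLa Kyoto cells arrested at G1/S by double thymidine block, proteins quantified by TMT10plex mass spectrometry in mild NP-40 versus SDS extracts, three biological replicates.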
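Throughout, for thermal stability score vs G1/S (z-score of summed log2 fold changes over temperatures): synchronized HeLa Kyoto cells, proteins quantified by TMT10plex mass spectrometry, three biological replicates, mitosis taken 0.5 h after nocodazole release, G1/S directly after double thymidine block.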

Sequence of HSPA5 (chain, as listed by the source): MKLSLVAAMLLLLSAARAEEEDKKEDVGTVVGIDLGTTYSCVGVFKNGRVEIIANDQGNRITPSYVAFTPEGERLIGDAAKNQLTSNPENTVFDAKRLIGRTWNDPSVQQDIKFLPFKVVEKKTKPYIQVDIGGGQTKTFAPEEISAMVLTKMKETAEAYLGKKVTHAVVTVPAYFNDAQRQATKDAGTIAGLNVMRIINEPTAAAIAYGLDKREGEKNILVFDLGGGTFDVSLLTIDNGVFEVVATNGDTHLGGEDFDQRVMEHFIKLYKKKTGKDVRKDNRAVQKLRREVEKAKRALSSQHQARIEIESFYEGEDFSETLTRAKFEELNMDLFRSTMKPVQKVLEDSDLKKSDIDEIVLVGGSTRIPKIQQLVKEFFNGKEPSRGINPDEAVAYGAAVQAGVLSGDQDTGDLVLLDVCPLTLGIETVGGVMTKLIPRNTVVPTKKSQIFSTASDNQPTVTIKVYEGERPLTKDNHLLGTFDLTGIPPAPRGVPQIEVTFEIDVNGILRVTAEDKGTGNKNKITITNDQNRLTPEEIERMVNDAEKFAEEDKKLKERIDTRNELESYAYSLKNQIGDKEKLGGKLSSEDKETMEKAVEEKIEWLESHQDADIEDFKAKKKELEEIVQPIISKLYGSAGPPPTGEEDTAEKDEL

Take “MVKLDIHTLAHHLKQERLYVNSEKQLIQRLNADVLKTAEKLYRTAWIAKQQRINLDRLIITSAEASPAECCQHAKILEDTQFVDGYKQLGFQETAYGEFLSRLRENPRLIASSLVAGEKLNQENTQSVIYTVFTSLYGNCIMQEDESYLLQVLRYLIEFELKESDNPRRLLRRGTCAFSILFKLFSEGLFSAKLFLTATLHEPIMQLLVEDEDHLETDPNKLIERFSPSQQEKLFGEKGSDRFRQKVQEMVESNEAKLVALVNKFIGYLKQNTYCFPHSLRWIVSQMYKTLSCVDRLEVGEVRAMCTDLLLACFICPAVVNPEQYGIISDAPINEVARFNLMQVGRLLQQLAMTGSEEGDPRTKSSLGKFDKSCVAAFLDVVIGGRAVETPPLSSVNLLEGLSRTVVYITYSQLITLVNFMKSVMSGDQLREDRMALDNLLANLPPAKPGKSSSLEMTPYNTPQLSPATTPANKKNRLPIATRSRSRTNMLMDLHMDHEGSSQETIQEVQPEEVLVISLGTGPQLTPGMMSENEVLNMQLSDGGQGDVPVDENKLHGKPDKTLRFSLCSDNLEGISEGPSNRSNSVSSLDLEGESVSELGAGPSGSNGVEALQLLEHEQATTQDNLDDKLRKFEIRDMMGLTDDRDISETVSETWSTDVLGSDFDPNIDEDRLQEIAGAAAENMLGSLLCLPGSGSVLLDPCTGSTISETTSEAWSVEVLPSDSEAPDLKQEERLQELESCSGLGSTSDDTDVREVSSRPSTPGLSVVSGISATSEDIPNKIEDLRSECSSDFGGKDSVTSPDMDEITHGAHQLTSPPSQSESLLAMFDPLSSHEGASAVVRPKVHYARPSHPPPDPPILEGAVGGNEARLPNFGSHVLTPAEMEAFKQRHSYPERLVRSRSSDIVSSVRRPMSDPSWNRRPGNEERELPPAAAIGATSLVAAPHSSSSSPSKDSSRGETEERKDSDDEKSDRNRPWWRKRFVSAMPKAPIPFRKKEKQEKDKDDLGPDRFSTLTDDPSPRLSAQAQVAEDILDKYRNAIKRTSPSDGAMANYESTGDNHDRDLSSKLLYHSDKEVMGDGESAHDSPRDEALQNISADDLPDSASQAAHPQDSAFSYRDAKKKLRLALCSADSVAFPVLTHSTRNGLPDHTDPEDNEIVCFLKVQIAEAINLQDKNLMAQLQETMRCVCRFDNRTCRKLLASIAEDYRKRAPYIAYLTRCRQGLQTTQAHLERLLQRVLRDKEVANRYFTTVCVRLLLESKEKKIREFIQDFQKLTAADDKTAQVEDFLQFLYGAMAQDVIWQNASEEQLQDAQLAIERSVMNRIFKLAFYPNQDGDILRDQVLHEHIQRLSKVVTANHRALQIPEVYLREAPWPSAQSEIRTISAYKTPRDKVQCILRMCSTIMNLLSLANEDSVPGADDFVPVLVFVLIKANPPCLLSTVQYISSFYASCLSGEESYWWMQFTAAVEFIKTIDDRK [GAPVD1]”: in series [1], the “solubility in G1/S (log2)” value was -0.136. Also, the values for the melting temperature in series [2] (cell cycle stage: G1/S) and in series [2] (cell cycle stage: mitosis) were 49.5 °C and 49.8 °C, respectively. In addition, in series [3], the “solubility change mitosis (log2)” value was -0.131. Besides, the thermal stability score amounted to 1.88 in series [4] (setting [5]) and 3.33 in series [4] (cell cycle stage: mitosis).

Consider “MTPLCPRPALCYHFLTSLLRSAMQNARGARQRAEAAVLSGPGPPLGRAAQHGIPRPLSSAGRLSQGCRGASTVGAAGWKGELPKAGGSPAPGPETPAISPSKRARPAEVGGMQLRFARLSEHATAPTRGSARAAGYDLYSAYDYTIPPMEKAVVKTDIQIALPSGCYGRVAPRSGLAAKHFIDVGAGVIDEDYRGNVGVVLFNFGKEKFEVKKGDRIAQLICERIFYPEIEEVQALDDTERGSGGFGSTGKN [DUT]”, for which the “solubility in G1/S (log2)” value in series [1] came to 0.483. Besides, the melting temperature is 53.2 °C in series [2] (cell cycle stage: G1/S) and 53.5 °C in series [2] (cell cycle stage: mitosis). Moreover, the “solubility change mitosis (log2)” value in series [3] is -0.0703. For the same substance, the thermal stability score is 0.243 in series [4] (setting [5]) and -0.204 in series [4] (cell cycle stage: mitosis).

Consider “MALQGISVVELSGLAPGPFCAMVLADFGARVVRVDRPGSRYDVSRLGRGKRSLVLDLKQPRGAAVLRRLCKRSDVLLEPFRRGVMEKLQLGPEILQRENPRLIYARLSGFGQSGSFCRLAGHDINYLALSGVLSKIGRSGENPYAPLNLLADFAGGGLMCALGIIMALFDRTRTGKGQVIDANMVEGTAYLSSFLWKTQKLSLWEAPRGQNMLDGGAPFYTTYRTADGEFMAVGAIEPQFYELLIKGLGLKSDELPNQMSMDDWPEMKKKFADVFAEKTKAEWCQIFDGTDACVTPVLTFEEVVHHDHNKERGSFITSEEQDVSPRPAPLLLNTPAIPSFKRDPFIGEHTEEILEEFGFSREEIYQLNSDKIIESNKVKASL [AMACR]”, for which the “solubility in G1/S (log2)” value in series [1] stood at 0.155. Further, the melting temperature came to 52.1 °C in series [2] (cell cycle stage: G1/S) and 52.5 °C in series [2] (cell cycle stage: mitosis). For the same substance, the “solubility change mitosis (log2)” value in series [3] is -0.0545. The thermal stability score in series [4] (setting [5]) turned out to be 0.0452; in series [4] (cell cycle stage: mitosis) it was 0.6.

Regarding “MASTSRLDALPRVTCPNHPDAILVEDYRAGDMICPECGLVVGDRVIDVGSEWRTFSNDKATKDPSRVGDSQNPLLSDGDLSTMIGKGTGAASFDEFGNSKYQNRRTMSSSDRAMMNAFKEITTMADRINLPRNIVDRTNNLFKQVYEQKSLKGRANDAIASACLYIACRQEGVPRTFKEICAVSRISKKEIGRCFKLILKALETSVDLITTGDFMSRFCSNLCLPKQVQMAATHIARKAVELDLVPGRSPISVAAAAIYMASQASAEKRTQKEIGDIAGVADVTIRQSYRLIYPRAPDLFPTDFKFDTPVDKLPQL [GTF2B]”, the “solubility in G1/S (log2)” value in series [1] came out at 0.251. Besides, the melting temperature in series [2] (cell cycle stage: G1/S) was determined as 49.7 °C; in series [2] (cell cycle stage: mitosis), 49.4 °C. In addition, the “solubility change mitosis (log2)” value in series [3] is -0.111. Also, the results for the thermal stability score in series [4] (setting [5]) and in series [4] (cell cycle stage: mitosis) were 2.28 and 4, respectively.

With HSPA5, the “solubility in G1/S (log2)” value in series [1] stood at 0.316. The melting temperature amounted to 55.5 °C in series [2] (cell cycle stage: G1/S) and 56.9 °C in series [2] (cell cycle stage: mitosis). Besides, the “solubility change mitosis (log2)” value in series [3] is 0.0735. In addition, the thermal stability score worked out at 3.25 in series [4] (setting [5]) and 3.15 in series [4] (cell cycle stage: mitosis).

These data come from the supplement of paper PMC5998384.
